Results: the domain aggregation screens of Martell et al. (2025)

Test: soluble fraction after stress (log2 fold change); higher = more stays soluble; pooled small domains, quantitative proteomics
Conditions: stress: pH 4
Outline: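 Aggregation propensity here comes from the fold change in the soluble amount of each small protein domain after acid stress, measured in pooled custom libraries by high-throughput quantitative proteomics. The acid stress was pH 4. On the log2 scale, higher values mean more of the domain stayed soluble.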

HMGGQKTREAIFDLIMTNSKITSAQIAEILGIHRSGVARHLKKLQEEGLIKREGPDNGGQWIVIK
soluble fraction (log2): -0.298

HMLMYAQDEKEEASNNIPYRLLHMSFTKEQKAELQRAMDVRVPKDIILSYFYPDTPVARMMEIRRQYESA
soluble fraction (log2): 0.12

HMQEPVHFTRRERQVLSLILSGQATAEIAKTLGIANATVTTYKKSLYSKSGTNSLSRLLIWAMVRR
soluble fraction (log2): -0.332

HMNEKEAEEAAEAQTEVPDVTGMAPAQAKNMLYQAGLSSEYRGEGETVSRQLPPAGETVNRGTKAVLYL
soluble fraction (log2): 0.2

HMHKAVVGPPNARKLAVTYGFKRWPALVFFRDGKYLGAVDGLRLWADLVREADEIMHSEPHYP
soluble fraction (log2): 0.22

HMGIRQGKVTSTFVNVRSGASTANAKVGELHKGDVVSLIEKVANFWRIGPGQFVSADYIQVLAS
soluble fraction (log2): -0.0122

HMIKEVGYEKFMQMTEEEDIGRVEIDQEENQITFTDKDETAIYKTGMVDDPDLTERLYDAGAEFS
soluble fraction (log2): -0.591

HMGFPAPFDGKAVAELRRRLGLTRRGLAEELSVSPSTVDKWEQGDVALRSPALTILKILWHQGLKALPP
soluble fraction (log2): ≥ 0.43

HMAKMPSIIIMKDGVIRTSELEQIERDENWLNEEMKKQHIDNPEDVFLAEFWDGKVNFILQDGKIK
soluble fraction (log2): -0.78

HMQVSDEGPIKAILQEVLDKSPTQLADYASGKVKLRQYFFGEAMKALKGKANPQVINKLLDEMLPPVAA
soluble fraction (log2): -0.178

HMVIMDLIVNGEPKYVVGEQLHLILDELGYSGKHFVVELNGEILSKEAYTTTKLTAADRLEIVSFVGG
soluble fraction (log2): -1.72

HMKDEHYLYIKARVDNGDYPHLSELKSAEEIELVMPKLLQDGIVEFNKETGEYTIGEDVKAEIERL
soluble fraction (log2): -1.02

HMDLLVWRVADEDAGERIDKLVVDSLDDVSRTAVQQWIKDGLVTVNGKTVKPNYKAAAGDEVAVSVPEPE
soluble fraction (log2): -0.514

HMGGLENNLKQARNRVGLTQSELARQAGISRQAYSSLESGAANPSTEVALRLAQALSERVESLFYLPE
soluble fraction (log2): -0.169

HMTSPNPLIRSTTPGLETNKKGGIIVDENEMSTRENVFAGGDAVTGAATVILAMGAGKKAAAAIDAKLQN
soluble fraction (log2): 0.22

HMAIDLPVTTVNGKDYYYYDVQPKETIFSLSQRLGISREEIISYNPGVDGGLKAYTRLYFPVESGL
soluble fraction (log2): -0.0117

HMQLDLTSTLDHMYKQMRNDHPRALLMAVEKEMVLRALKETDGNQLRASDILGISRSTLRKRIEEFDINS
soluble fraction (log2): -0.257

HMEFLDLEIDVDATDGRLLAFLAAKGEVVSQTFNDTIITVRVRMPTGAMGQVHRSALAIRPA
soluble fraction (log2): -1.43

HMKMVEIDYGKFLTMLDTGKVKSVEIENNRIAINPSSSKDKNIYITGRMDDPELVDRLKNAKVEFTKVIP
soluble fraction (log2): -0.0394

HMDDVGERIRKIREEKNLSLDEISKMTGFDVEFLAKIENKERQPQLGTVIKLSKALDSAFGRL
soluble fraction (log2): -0.0445

HMDDLSPEENKVIGAQVREELARRRLSRQHLADKAKISLSTLEKALTGTRPFTLASVVRIEEALQLQLRK
soluble fraction (log2): 0.344

HMGKSPLDALSAREKEVLTYITRGVSINDIAAVLYLSPKTVSTHKTNLMQKLGIENNADLILFGVNHGLND
soluble fraction (log2): -0.897

HMDILEVLIKKDLAMELLEQLTERQRTVVYLRYFYQLNQKEIADYLGISQQRVSEILSRAKAVLTAYTKK
soluble fraction (log2): -0.878

HMPHTDATDKQIIALILETLKDGQKHSVSEMTFPGIPREKTAQLLHQMIEEETVRIQNGVLFLPH
soluble fraction (log2): -0.118

HMAVDAASSTIGKNVEVSVANEKGDYENFNGKVKSASIKDGVVYLELELKDTGEIKEVPYSSLTKIT
soluble fraction (log2): 0.355

HMVNDQSIYASEGYVHIRSGKPVSLRIYTILGALYRHEERLVGDHVIALPRGLYIVVLNHTAKKIMV
soluble fraction (log2): 0.021

HMEHPNNTELTQKLELGTELMQYGDYNYALKVFNNVIDSDPEWSEAWNKRATVYFLMSQFTDSLSDIDRV
soluble fraction (log2): -0.17
